The results in this text go back to the Human Domainome abundance scans (Beltran et al. 2025).

The chains are these.
B1: Zinc finger MYM-type protein 3, residues 589 to 668; numbered along this chain, Q14202 (parent)
chain: LSCHYCHSLFSGKPEVLDWQDQVFQFCCRDCCEDFKRLRGVVSQCEHCRQEKLLHEKLRFSGVEKSFCSEGCVLLYKQDF

± gives the uncertainty stated by the source.

This series covers variants of B1. Kind of series: abundance fitness (aPCA) (normalised: wild type 0, dead -1); higher = more abundant; growth selection in yeast, the domain comes from the species named. The note with it: Homo sapiens.
With LSCHYCHSLFSGKPEVLDWQDQVFQFCCRDCCEDFKRLRGVVSQCEHCRQEKLLHEKLGFSGVEKSFCSEGCVLLYKQDF, the abundance fitness is -0.261 ± 0.1.
Consider LSCHYCHSLFSGKPEVLDWQDQVFQFCCRDCCEDFKRLRGVVSQCEHCRQEKLLHEKLWFSGVEKSFCSEGCVLLYKQDF, for which the abundance fitness turned out to be 0.336 ± 0.14.
Regarding LSCHYCHSLFSGKPEVLDWQDQVFQFCCRDCCEDFKRLRGVVSQCEHCRQERLLHEKLRFSGVEKSFCSEGCVLLYKQDF, the abundance fitness is -0.315 ± 0.1.
On to LSCHYCHSLFSQKPEVLDWQDQVFQFCCRDCCEDFKRLRGVVSQCEHCRQEKLLHEKLRFSGVEKSFCSEGCVLLYKQDF, for which the abundance fitness was -0.003 ± 0.048.
Consider LSCHYCHSLFSGKPEVLDWQDQVFQFCCRDCCEDFKRLRGVVSTCEHCRQEKLLHEKLRFSGVEKSFCSEGCVLLYKQDF, for which the abundance fitness came out at 0.959 ± 0.066.
To LSCHYCHSLFSGKPEVLDWQDQVFQFCCRDCCEDFKRLRGVVSGCEHCRQEKLLHEKLRFSGVEKSFCSEGCVLLYKQDF belongs 0.185 ± 0.075; to LSCHYCHSLFSGKPEVLDWQDQVFQCCCRDCCEDFKRLRGVVSQCEHCRQEKLLHEKLRFSGVEKSFCSEGCVLLYKQDF, -0.444 ± 0.078; to LSCHYCHSLFSGKPEVLDWQDQVFQPCCRDCCEDFKRLRGVVSQCEHCRQEKLLHEKLRFSGVEKSFCSEGCVLLYKQDF, -0.664 ± 0.071.
On to LSCHYCHSLFSGKPEVLDWQDQVFQTCCRDCCEDFKRLRGVVSQCEHCRQEKLLHEKLRFSGVEKSFCSEGCVLLYKQDF, for which the abundance fitness was -0.489 ± 0.062.
Then LSCHYCHSLFSGKPEVLDWQDQVFQRCCRDCCEDFKRLRGVVSQCEHCRQEKLLHEKLRFSGVEKSFCSEGCVLLYKQDF, with -0.603 ± 0.049; and LSCHYCHSLFSGKPEVLDWQDQVFQFCCRDCCEDMKRLRGVVSQCEHCRQEKLLHEKLRFSGVEKSFCSEGCVLLYKQDF, with -0.071 ± 0.047; and LSCHYCHSLFSGKPEVLDWQDQVFQFCCRDCCEDEKRLRGVVSQCEHCRQEKLLHEKLRFSGVEKSFCSEGCVLLYKQDF, with -0.157 ± 0.045.
Consider LSCHYCHSLFSGKPEVLDWQDQVFQFCCRDCCNDFKRLRGVVSQCEHCRQEKLLHEKLRFSGVEKSFCSEGCVLLYKQDF, for which the abundance fitness was -0.018 ± 0.088.
In the case of LSCHYCHSLFSGKPEVLDWQDQVFQFCCRDCCYDFKRLRGVVSQCEHCRQEKLLHEKLRFSGVEKSFCSEGCVLLYKQDF, the abundance fitness is -0.173 ± 0.088.
As for LSCHYHHSLFSGKPEVLDWQDQVFQFCCRDCCEDFKRLRGVVSQCEHCRQEKLLHEKLRFSGVEKSFCSEGCVLLYKQDF, the abundance fitness was -0.821 ± 0.13.
Take LSCHYCHSLFSGKPEVLDWQDQVFQFCCRDCCEDFKMLRGVVSQCEHCRQEKLLHEKLRFSGVEKSFCSEGCVLLYKQDF: the abundance fitness is -0.086 ± 0.22.
In the case of LSCHYCHSLFSGKPEVLDWQDQVFQFCCRDCCEDFKLLRGVVSQCEHCRQEKLLHEKLRFSGVEKSFCSEGCVLLYKQDF, the abundance fitness was 0.095 ± 0.06.
In the case of LSCHYCHSLFSGKPEVLDWQDQVFQFCCRDCCEDFKRLRGVVSQCEHCRQEKLLHEKLRFSGVEKSFCSEGCVLHYKQDF, the abundance fitness is -0.295 ± 0.3.
In the case of LSCHYCHSLFSGKPEVLDWQDQVFQFCCRDCCEDFKRLRGVVSQCERCRQEKLLHEKLRFSGVEKSFCSEGCVLLYKQDF, the abundance fitness was -0.098 ± 0.089.
Regarding LSCHYCHSLFSGKPEVLDWQDQVDQFCCRDCCEDFKRLRGVVSQCEHCRQEKLLHEKLRFSGVEKSFCSEGCVLLYKQDF, the abundance fitness is -0.376 ± 0.064.
Turning to LSCHYCHSLFSGKPEVLDWQDQVFQFCCRDCCEDFKRLRGVVSQCEHCRQEKLLHEKLRFGGVEKSFCSEGCVLLYKQDF, the abundance fitness is 0.282 ± 0.077.
Turning to LSCHYCHSLFSGKPEVLDWQDQVFQFCCRDCCEDFKRLRGVVSQCEHCRQEKLLHEKLRFLGVEKSFCSEGCVLLYKQDF, the abundance fitness is -0.311 ± 0.2.
Regarding LSCHYCHSLFSGKPEVLDWQDQVFQFCCRDCCEHFKRLRGVVSQCEHCRQEKLLHEKLRFSGVEKSFCSEGCVLLYKQDF, the abundance fitness is -0.057 ± 0.071.
Turning to LSCHYCHSLFSGKPEVLDWQDQVFQFCCRDCCEDFKRLRGVVSQCEHARQEKLLHEKLRFSGVEKSFCSEGCVLLYKQDF, the abundance fitness was -0.845 ± 0.16.
Regarding LSCHYCHSRFSGKPEVLDWQDQVFQFCCRDCCEDFKRLRGVVSQCEHCRQEKLLHEKLRFSGVEKSFCSEGCVLLYKQDF, the abundance fitness is -0.012 ± 0.04.
As to LSCHYCHSLFSGKPEVLDWQDQVFQFCCRDCCEDFKRLRGVVSQCEHCRQEKLLHEKLRFSGVEKSFCSEGCVDLYKQDF, the abundance fitness worked out at 0.145 ± 0.13.
For the variant LSCHYCHSLFSGKPEVLDWQDQVFQFCCRDCCEDFKRLRGVVSQCEHCRQEKLLHEKLRFSGVEKSFCSEGCVYLYKQDF, the abundance fitness was -0.446 ± 0.38.
Turning to LSCHYCHSLFSGKPEVLDWQDQVFQFCCRDCCEDFKRLRGVVSQCEHCRQEKLLHEKLRFSGVEKSFCSEGCVRLYKQDF, the abundance fitness was found to be 0.484 ± 0.08.
Take LSCHYCHSLFSGKPEVLNWQDQVFQFCCRDCCEDFKRLRGVVSQCEHCRQEKLLHEKLRFSGVEKSFCSEGCVLLYKQDF: the abundance fitness turned out to be 0.138 ± 0.095.
For the variant LSCHYCHSLFSGKPEVLCWQDQVFQFCCRDCCEDFKRLRGVVSQCEHCRQEKLLHEKLRFSGVEKSFCSEGCVLLYKQDF, the abundance fitness is -0.107 ± 0.088.
In the case of LSCHYCHSLFSGKPEVLDWQDQVFQFCCRDCCEDFKRLRGVVSQCEHCRQEKLLHEKVRFSGVEKSFCSEGCVLLYKQDF, the abundance fitness came out at 0.544 ± 0.089.
Turning to LSCHYCHSLFSGKPEVLDWQDQVFQFCCRDCCEDFKRLRGVVSQCEHCRQEKLLHEKTRFSGVEKSFCSEGCVLLYKQDF, the abundance fitness was -0.364 ± 0.18.
Consider LSCHQCHSLFSGKPEVLDWQDQVFQFCCRDCCEDFKRLRGVVSQCEHCRQEKLLHEKLRFSGVEKSFCSEGCVLLYKQDF, for which the abundance fitness came to 0.203 ± 0.048.
In the case of LSCHKCHSLFSGKPEVLDWQDQVFQFCCRDCCEDFKRLRGVVSQCEHCRQEKLLHEKLRFSGVEKSFCSEGCVLLYKQDF, the abundance fitness was found to be 0.294 ± 0.046.
To LSCHYCKSLFSGKPEVLDWQDQVFQFCCRDCCEDFKRLRGVVSQCEHCRQEKLLHEKLRFSGVEKSFCSEGCVLLYKQDF belongs 0.055 ± 0.062.
